From the nanobody polyreactivity screen of Harvey et al. (2022)

Assay: yeast display, Sf9 membrane polyspecificity reagent, FACS + sequencing; frameworks hold sequencing errors
In short: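 Polyreactivity labels are assigned by the sorting gate from which each nanobody was recovered. The gates were low and high (top ~1%), set on anti-HA fluorescence for expression and streptavidin fluorescence for reagent binding. Before sorting, galactose-induced (36–48 hours) yeast display cells were stained for 1 hour at 4 °C with 10% biotinylated, detergent-solubilized Sf9 membrane reagent.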

Row | Sequence | polyreactivity (PSR sort gate)
1 | QVQLVESGGGLVQAGGSLRLSCAASGRIIIYNAMGWYRQAPGKERQLVAAINRSGVSTHYADSVKGRFTISRDNAKNTVYLQMNSLKPEDTAVYYCARTVYGARSYDYWGQGTQVTVSS | low polyreactivity
2 | QVQLVESGGGLVHAGGSLRLSCAASGSIFGIYTMGWYRQAPGKERELVARINLSGGITYYADSVKGRFKISRDNAKNTVYLQMNSLKPEDTAVYYCNARTVNFPYDYWGQGTQVTVSS | low polyreactivity
3 | QVQLVESGGGLVQAGGSLRLSCAASGFIFPYDAMGWYSQAPGNERELVAAITSSGGRTYYADSVQGRFTISRDNAKNTVYFQMNSLKPEDTAVYYCAARGAPPAYGYWGQGTQVTVSS | high polyreactivity
4 | QVQLVESGGGLVQAGGSLRLSCAASGSTFVDNALGGYRQAPGKERELVAGISIGGITYYADSVKGRFTISRDNAKNTVYLQMNSLKPEDTAVYYCAKRHKRTRNKYYYWGQGTQVTVSS | high polyreactivity
5 | QVQLVESGGGLVQAGGSLRLSCAASGFTFNSYAMGWYRQAPGKERELVAAITWRGGSTYADSVKGRFTISRDNAKNTVYLQMNSLKPEDTAVYYCNAVSDVKRYDYWGQGTQVTVSS | high polyreactivity
6 | QVQIVESGGGLVQAGGSLRLTCAASGYIFTYYAMGWYRQAPWKERDLVAAISGSDGNTYYADSVKGRFTISRDNAKNTVYLQMNSLKPEDTAVYYCAKSGGLTFRSQSYDYWGQGTQVTVSS | low polyreactivity
7 | QVRLVESGGGLVQAGCSLRLSCAASGSTFWSYAMGWYRQAPGKERELVAAISWSGDSTYYADSVKGRFTISRDNAKNTVYLQMNSLKPEDSAVYYCAADYTGSFYTYDYWGQGTQVTVSS | low polyreactivity
8 | QVQLVESGGGLVQAGGSLRISCAASGLTFYRYAMGWYRQAPGKERELVAAIRVSGNTYYADSVKGRFTISRDNAKNTVYLEMNSLKPEDTAVYYFAAKPYYFYGMDYWGQGTQVTVSS | high polyreactivity
9 | QVQLVESGGGLLQAGGSLRLSCAASGRIFGSYAMGWYRPAPGKERELVAAINWRGGSTFYADSVKGRFTISRDNAKNTVYLQMNSLKPEDTAVYYCARRGYRQSGDYWGQGSQVTVSS | low polyreactivity
10 | QVQLVESGGGLVQAGGSLRLSCAASGRTFYVNTMGWYRQAPGKEREFVAAITWRDGSTYYADSVKGRFTISRDNAKNTVYLQMNSLKPEDTAVYYCAARNSHDGYYDEYYYWGQGTQVTVSS | low polyreactivity
11 | QVQLVESGGGIVQAGGSLRLSCAASGNTFHTYAMGWNRQAPVKERELVAAISSRGVGTYYADSVKGRFTISRDNAKNTVYLQMNSLKPEDTAVYYCAARHHPEYYYWGQGTQVTVSS | high polyreactivity
12 | QVQLVESGGGLVQAGGSLRLSCAASGITFRAYVMGWYRQAPGKERELVAAINRRGGSTYYADSVKGRFTISRDNEKNTVYLQMNSLKPEDTAVYYCGNGDFDYWGQGTQVTVSS | high polyreactivity
13 | QVQLVESGGGLVQAGGSLRLICDASGRTFPPYAMGWYRQAPGKERELVAAISRRAGTTYYADSVKGRFTISRDNAKNTDYLQMNSLKPEDTAVYYCAADTPVWSGYWYDYWGQGTQVTVSS | low polyreactivity
14 | QVQLVESGGGLVQAGGSLRLSCAASGSTFNTYAMGWYRQAPGKERELVAAITWRGGRTYYADSVKGRFTISRDNAKNTVYLQMNSLKPEDTAVYYCAARRTYYSRKPRFDYWGQGTQVTVSS | high polyreactivity
15 | QVQLVESGGGLVQAGGSLRLSCAASGSSRIYDMGWYRQAPGKERVWVAAISSTGSTYYADSEKGRYTISRDNAKNTGYLQMNSLKPEETADYYCAAARYYRYDSYSSWGQGTQVTVSS | high polyreactivity
16 | QDQLVESGGGLVQAGGSLRLSCAASGRIFFTNAMGWYRQAPGKERELVASIDDTGSTNYADSVKGRFTISRDNAKNTVYLQMNSLKPEDTATSTQGDYWGQGTQVTVSS | low polyreactivity
17 | QVQLVESGGGLVQAGGSLRLSCAASGFIFPHNTMGWYRQAPGKERELVAAISSGGSTNYADSVKGRFTISRDNAKNTVYLQMNSLKPEDTAVYYCNKRVRYHSGFGYWGQGTQVTVSS | low polyreactivity
18 | QVQLVESGGGLVQAGGSLRLSGAASGRILRRYTMGWSRQAPGKERELVAAISSGGNTYYADSVKGRFTISRDNATNTVYLQMNSLKPEDTAGYYCAARVRRYWEYDYWGQGTQVTVSS | low polyreactivity
19 | EEELVESGGGLVQAGGSLRLSCAASGRTFVYNAMGWYRQAPWKERELVAAITSGDSTYYADSVKGRFTISRDNAKNTVYLQMNSLKPEDTAVYYCATDYSGIFYWYDYWGQGTQVTVSS | low polyreactivity
20 | QVQLVESGGGLVQAGGSLRLSCAASGRIFRWYAMGWYRQAPGKERELVASITWNGGSTYYADSVKGRFTISRDNAKNTVYLQMNSLKPEDTAVYYCAVAFYRGPEMGYWGQGTQVTVSS | high polyreactivity
21 | QVQHVESGGGLVQAGGSLRLSCAASGYTFYFYAMGWYRQAPGKERELVAAITGGGTTSYADSVKGRFTISRDNAKNTVYLQMNSLKPEDTAVYYCNVLFADKSDYWGPGTQVTVSS | low polyreactivity
22 | QVQLVESGGGLVQAGGSLRLSCAASGRIFEDNGMGWYRQAPGKEREFVATISWDGDRTYYADSVKGRFTISRDNAKNTVYFQMNSLKPEDTAVYYCNADLPLWPFRGYEYWGQGTQVTVSS | low polyreactivity

Row | Sequence | polyreactivity (PSR sort gate)
23 | QVQLVESGGGLVQAGGSLRLSCAASGRIFTPYAMGWYRQAPRKERELVAVIRDGSTYYADSVKGRFTISRDNAKYNVYLQMKSLIPEDTAVYYCRYDIWVWWSGAYDYWGQGTQVTVSS | low polyreactivity
24 | QVQLVESGGGLIQAGGSLRLSCATSGSIFDDYAMGWYRQAPGKERELVAAISSSGTSTYYADSVKGRFTISRDNAKNTVYLQMKSLKPEDTAVYYCAARSAILKSGYLMDYWGQGTQVTVSS | low polyreactivity
25 | QVQLVESGGGLVQAGGSLRLSCAASGNTLGYNAAMGWYRQAPGKERELVAAITENGGSTYYADSVKGRFTISRDNAKNTVYLQMNSLKPEDTAVYYCATAPYYYRGAYGFEYWGQGTQVTVSS | low polyreactivity
26 | QVQLVESGGGLVQAGGSLRLSCADSGRIFHTYAMGWYRHAPGKERELVAAISKGGSGTYYADSVKGRFTISRDNAKNTVYLQRNSLKPEDTAVYYCAADLTYHYPRYITYEYWGQRTQVTVSS | low polyreactivity
27 | QVQLVESGGGLVQAGGSLRLSCAASGFIFVPNAMGWYRQAPGKERELVAAIRWSDGTTYYADSVKGRFTISRDNAKNNVYLQMNSLKPEDTAVYYCATDHDPRYDYWGQGTQVTVSS | high polyreactivity
28 | QVQLVESGGGLVQAGGSLRLSCAASGSNFLIYAMGSYSQAPGKERELVAAITFSGCSTYADSVKGRFTISRENAKNTVYLQMNSLKPEDTAVYYCAADSTKYAYDYWGQGTQVTVSS | low polyreactivity
29 | QVQLVESGGGLVQAGGSLRLSSAATGITFSSYAMGSYRQAPGKERELVAAISTRGGSTYYADSVKGRFTISRDNAKNTVYLQMNSLKPEDTAVYYCATGGRGGRRYEYWGQGTQVTVSS | low polyreactivity
30 | QVQLVESGGGLVQAGGSLRLSCAASGRIFPAYAMGWYKQAPGKERELVASIRRGGITYADSVKGRFTISRDNAKNTVYLQMNSLKPEDTAVYYCNADYRGWGYHMDYWGQGTKVTVSS | low polyreactivity
31 | QVQLIESGGGLVKAGGSLRLSCAASGSIFYRNTMGWYRQAPGKERELVARISWSGGRTYYADSVKGRFTISRDNAKNTVYLQMNSLKPEDTAVYYCAASTYGQRGTSYGYWGQGTQVTVSS | low polyreactivity
32 | QVQLVESGGGLVQAGGSLRLSCAASGSIFVRNGMGWYRQAPGKERELVASITSGTITYYADSVKGRFTISRDNAKNTVYLQMNSLKPEDTAVYYCAAYQYPADFKLYYYWGQGTQVTVSS | high polyreactivity
33 | QVQLVESGGGLVQAGGSLRLSCAASGGIVRLYGMGWDRQAPGKEMEFVAAISSGGGRTYYADSVKGRFTLSRDNAKNTVYLQMNSLKPEDTAVYYCNAELNWYYYIHLDYWGQGTQVTVSS | low polyreactivity
34 | QVQLVESGGGLVQAGGSLRLSCAASGSIIHRNAMGWYRQAPGKERELVATITSNGGSTYYADSVKGRFTISRDNAKNTVYLQMNSLKPEETAVYYCARKYRSPISALLTGDYWGQGTQVTVSS | low polyreactivity
35 | QVQLVESGGGLVQAGGSLRLSCASSGPIFVYKVKGWYRQAPGKERELVAAISWGTGSTYADSVKGRFTISRDNAKNTVYLQMYSLKPEDTAVYYCAAESFIPPYDHWGQGTQVTGSS | low polyreactivity
36 | QVQLVESGGGLVQAGGSLRLSCAASGRILRGYAMGWYRQAPGKERELVAAINSGGDTYYADSVKGRFTISRDNAKNTVYLQMNSLKPEDTAVYYCASDYWGWIYLYGDHLVDYRGQGTQVTVSS | low polyreactivity
37 | QVQLVESGGGIVQAGGSLRLSCAASGFIISPNAMGWYRHAPGKEREFVAAIRYSGTSTSYADSVKGRFTISRDNGKNTVYLQMNSLKPEDTAVYYCAAQYRQRTGMYYWGQGSQVTVSS | high polyreactivity
38 | QVQLVESGGGLVQAGGSLRLTCAASGSTFVRYAMGWYRQAPGKERELVATIRRVGSTNYADSVKGRFTISRDNAKNTVYLQMNSLKPEDTEVYYCAARSLRYGRGMYYWGQGTQVTVSS | high polyreactivity
39 | QVQLVESGGGLVQAGGSLRLSCAASGGIFAYNAMGWYRQAPGKERELVASISSGGNTYYADSVKGRFTISRDNAKNTVYLQMNSLKPEDTAVYYCNARFYRSWRRFSREPGYNYWGQGTQVTVSS | high polyreactivity
40 | QVQLVESGGGLVQAGGSLRLSCAASGSTFAIYAMGWYRQAPAKERELVAAITRGSTSYADSVKGRFTISRDNAKNTVYLQMNSLKPEDTAVYDCAADSSRYGVIRDFDYWGQGTQVTVSS | high polyreactivity
41 | QVQLVESGGGLVQAGGSLRLSCAASGSTFDYYSMGWYRQAPGKERELVAAISYSGSRTYYADSVKGRFTISRDNAKNTVYLQMNSLKPEDTAVYYCAARRGYVKGKTYDYWGQGTQVTVSS | high polyreactivity
42 | QVQLVESGGGLVQAGGSLRLSCAASGSTFTPYAMGWYRPAPGKERELVATISSRGGSTSYADSVKGRFTISRDNAKNTVYLQMNSLKPEDTAVYYCARKVRRVARIMYYWGQGTQVTVSS | high polyreactivity
43 | QVQLVESGGGLVQAGGSLRLSCAASGRIFYKYAMGWYRQAPGKERELVAAITTSGGSTYYADSVKGRFTISRDNAKNTVYLQMNSLKPEDTAVYYCARDLNGRFLTTGRGMDYWGQGTQVTVSS | high polyreactivity
